Experimental findings from patent US20250388666A1 (BRIGHAM AND WOMEN S HOSPITAL, published 2025) are described below.

The labels stand for the following.
B1: He9/L3 (antibody, IgG4, V domains shown)
VH: EVQLLESGGGLVQPGGSLRLSCAASGFSFSDYYLYWVRQAPGKGLEWVATISVGGGQTSYADSVKGRFTISRDNSKNTLYLQMNSLRAEDTAMYYCARAMYYGPAWFAYWGQGTLVTVSS
VL: DIVMTQSPDSLAVSLGERATINCKSSQSLLNSANQKNYLAWYQQKPGQPPKLLIYFASTRESGVPDRFSGSGSGTDFTLTISSLQAEDVAVYYCQSHFPFPFTFGGGTKVEIK
notes: IgG4 S241P, kappa; also called He9 / 3
B2: He9/L17 (antibody, IgG4, V domains shown)
VH: B1 VH
VL: B1 VL with F98Y, F100Y, F102Y
notes: IgG4 S241P, kappa; also called He9 / 17
B3: He17/L16 (antibody, IgG4, V domains shown)
VH: B1 VH with A97T, M100R, Y101T
VL: B1 VL with F98Y, F100Y
notes: IgG4 S241P, kappa; also called 17 / 16
B4: He9/L4#2 (antibody, IgG4, V domains shown)
VH: B1 VH
VL: B1 VL with F98Y, F100Y, F102Y
notes: IgG4 S241P, kappa
B5: He4/L16 (antibody, IgG4, V domains shown)
VH: B1 VH with A97T, M100L
VL: B1 VL with F98Y, F100Y
notes: IgG4 S241P, kappa; also called He4 / 16
B6: VH1 N56Q/VK4 S27(f)A (antibody, human IgG4, V domains shown)
VH: B1 VH with A61P, A97T, A99G, M100L
VL: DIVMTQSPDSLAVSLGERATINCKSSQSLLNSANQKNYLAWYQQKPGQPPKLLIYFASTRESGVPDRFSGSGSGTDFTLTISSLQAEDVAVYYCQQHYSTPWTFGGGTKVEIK
notes: aglycosylated humanized variant; human IgG4

Broadly, the Kd is a measure of binding affinity in units of concentration. High values mean lower affinity, low ones higher affinity. As a reminder, the koff is a measure of how fast the partners let go of each other. Read a low koff as slow dissociation. What is called kon is the second-order rate constant of association. Read a high kon as fast association.

Numbering of substitutions follows the chain as printed. In names and notes the source's numbering stands.

One assay has as its target T1, CEACAM1 (Sino Biological) (human, UniProt P13688 35-428, limits assumed).
T1 construct: may be the same as CEACAM1-HIS; also called hCEACAM1; biotinylated soluble CEACAM1
T1 sequence: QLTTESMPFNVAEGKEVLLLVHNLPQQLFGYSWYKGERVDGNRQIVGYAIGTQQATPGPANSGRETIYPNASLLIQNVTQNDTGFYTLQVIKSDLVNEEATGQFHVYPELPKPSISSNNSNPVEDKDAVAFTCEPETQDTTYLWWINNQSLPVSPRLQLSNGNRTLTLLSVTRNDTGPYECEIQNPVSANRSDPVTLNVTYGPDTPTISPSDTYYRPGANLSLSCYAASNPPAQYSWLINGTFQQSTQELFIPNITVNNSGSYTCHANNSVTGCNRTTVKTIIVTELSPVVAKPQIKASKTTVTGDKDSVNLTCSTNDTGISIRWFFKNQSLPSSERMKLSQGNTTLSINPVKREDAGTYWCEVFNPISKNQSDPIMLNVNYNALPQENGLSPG
In words: SPR single-cycle. Put shortly:
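Humanized affinity-matured IgGs from crude supernatants captured on Protein A to ~100 RU, with CEACAM1 analyte injected at 25–100 nM (three-point, two-fold) in HBS-P+ without regeneration. 200 s association per injection, 300 s single dissociation; reference-channel and blank subtracted.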
Regarding B1, the equilibrium dissociation constant (Kd) is 27 nM and the “fold better than Parent (KD)” value worked out at 5.85 fold.
For the molecule B2, binding was put at a Kd of 33 nM and the “fold better than Parent (KD)” value was 4.88 fold.
Consider B3, for which the dissociation constant Kd is 67 nM and the “fold better than Parent (KD)” value stood at 2.36 fold.
Consider B4, for which the Kd stood at 57 nM and the “fold better than Parent (KD)” value came to 9.71 fold.
On to B5, for which binding was characterised by a dissociation constant (Kd) of 52 nM and the “fold better than Parent (KD)” value was 3.04 fold.

The next assay deals with T2, CEACAM5 on transfected HeLa cells (UniProt P06731 35-685).
T2 construct: whole, on cells; also called C5
T2 sequence (looked up): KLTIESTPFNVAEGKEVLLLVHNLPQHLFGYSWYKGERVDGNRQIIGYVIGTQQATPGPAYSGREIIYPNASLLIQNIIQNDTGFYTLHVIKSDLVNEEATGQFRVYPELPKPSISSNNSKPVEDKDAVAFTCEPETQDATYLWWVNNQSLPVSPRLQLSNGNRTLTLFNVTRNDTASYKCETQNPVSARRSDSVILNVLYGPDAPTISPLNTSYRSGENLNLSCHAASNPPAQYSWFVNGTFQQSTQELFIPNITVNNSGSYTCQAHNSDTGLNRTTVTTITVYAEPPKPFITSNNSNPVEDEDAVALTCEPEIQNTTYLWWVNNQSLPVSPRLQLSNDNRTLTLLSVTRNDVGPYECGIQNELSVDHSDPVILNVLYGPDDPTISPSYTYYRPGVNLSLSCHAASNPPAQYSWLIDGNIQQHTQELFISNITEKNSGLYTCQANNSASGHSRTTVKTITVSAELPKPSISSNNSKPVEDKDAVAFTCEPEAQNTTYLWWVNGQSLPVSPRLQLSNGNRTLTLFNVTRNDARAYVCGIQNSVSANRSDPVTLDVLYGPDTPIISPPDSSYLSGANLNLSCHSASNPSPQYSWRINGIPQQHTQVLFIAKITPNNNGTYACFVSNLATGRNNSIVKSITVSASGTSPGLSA
In words: flow cytometry, transfected HeLa. The protocol:
(§1) Binding selectivity of the selected antibody variants was assessed by flow cytometry using HeLa cells transfected with vectors expressing CEACAM1, CEACAM5, and CEACAM6, respectively. The resulting cells were used for flow cytometry experiments and were cultured at 37° C., 5.0% CO₂ in Dulbecco's modified Eagle's medium supplemented with 10% fetal bovine serum, penicillin (100 U/ml) and dihydrostreptomycin ([…]). Cell lines were stained with the indicated antibodies followed by fluorochrome-conjugated monoclonal antibody specific for the indicated antibody isotypes such as human IgG4 or mouse IgG1 together with viable dye (DAPI). Data were acquired with a Cytoflex flow cytometer ([…]) and analyzed with FlowJo software (TreeStar, V7.6.5 for Windows).
On the technique in general: In flow cytometry, cells or beads pass a laser one at a time.
In turn, B6 returned a relative fluorescence intensity of 0.0622.

The next assay deals with T3, CEACAM1 on transfected HeLa cells (Homo sapiens (Human), UniProt P13688 35-526).
T3 construct: also called C1
T3 sequence: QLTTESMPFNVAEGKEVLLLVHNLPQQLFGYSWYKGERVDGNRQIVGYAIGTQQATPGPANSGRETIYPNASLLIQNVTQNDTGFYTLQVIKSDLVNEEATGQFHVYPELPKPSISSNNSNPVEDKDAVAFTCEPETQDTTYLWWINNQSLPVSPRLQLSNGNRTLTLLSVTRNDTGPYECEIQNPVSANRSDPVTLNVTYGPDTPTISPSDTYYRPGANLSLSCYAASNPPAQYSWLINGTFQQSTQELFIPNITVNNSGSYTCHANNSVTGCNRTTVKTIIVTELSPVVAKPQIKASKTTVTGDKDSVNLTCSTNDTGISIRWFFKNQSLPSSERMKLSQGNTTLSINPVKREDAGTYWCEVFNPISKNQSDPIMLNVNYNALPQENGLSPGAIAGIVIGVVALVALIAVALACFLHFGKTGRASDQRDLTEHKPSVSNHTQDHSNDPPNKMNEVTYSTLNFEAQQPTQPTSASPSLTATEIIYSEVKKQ
The experiment in a line: flow cytometry, transfected HeLa. On the procedure:
as §1
For B6, the relative fluorescence intensity is 87.1.

The target in the next assay is T4, CEACAM3 (Sino Biological) (human, UniProt P40198 35-155, limits assumed).
T4 construct: also called hCEACAM3
T4 sequence (looked up): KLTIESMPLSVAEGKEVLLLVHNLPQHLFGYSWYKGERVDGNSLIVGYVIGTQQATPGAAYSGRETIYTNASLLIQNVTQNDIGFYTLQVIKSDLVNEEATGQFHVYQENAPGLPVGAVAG
The experiment in a line: binding ELISA on plate-coated CEACAM (0.5 µg/mL); antibody at 1.67, 0.062 and 0.0069 µg/mL; signal as % of parent IgG on CEACAM1 at 1.67 µg/mL on the same plate. In general terms: An ELISA detects its analyte on a solid surface through an enzyme-linked reagent.
Turning to B3, the binding result was “no binding (tested: 1.67 µg/mL)”.
On to B5, for which the binding result is given as “no binding (tested: 1.67 µg/mL)”.

The target of another assay is T5, CEACAM5 (Sino Biological) (human, UniProt P06731 35-685).
T5 construct: also called hCEACAM5
T5 sequence (looked up): T2 sequence (looked up)
The assay is described as above.
On to B4, for which the binding result is given as “binds”.

In another assay the target is T6, CEACAM6 (Sino Biological) (human, UniProt P40199 35-320).
T6 construct: also called hCEACAM6
T6 sequence (looked up): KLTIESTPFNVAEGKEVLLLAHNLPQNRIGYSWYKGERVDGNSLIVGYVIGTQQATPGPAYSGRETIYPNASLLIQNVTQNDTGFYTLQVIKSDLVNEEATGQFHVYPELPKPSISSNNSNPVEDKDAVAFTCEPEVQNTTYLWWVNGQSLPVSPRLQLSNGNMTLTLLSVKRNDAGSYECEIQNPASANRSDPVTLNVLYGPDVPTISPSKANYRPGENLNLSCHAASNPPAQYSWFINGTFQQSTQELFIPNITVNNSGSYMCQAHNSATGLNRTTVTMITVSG
Described as above.
With B3, the binding result is on record as “no binding (tested: 1.67 µg/mL)”.

The next assay deals with T5, CEACAM5 (Sino Biological). The description is as above. This is another data set of the same source.
As for B1, the binding result was “binds”.
Turning to B2, the binding result is on record as “binds”.

Another assay has as its target T1, CEACAM1 (Sino Biological). The experiment in a line: SPR multi-cycle, IgG on Protein A. On the procedure:
Multi-cycle kinetics analysis was performed on the twelve lead antibodies using a Biacore T200 instrument running Biacore T200 Evaluation Software V3.0.1 (Uppsala, Sweden) to establish an accurate affinity for CEACAM1. The purified antibodies were diluted to a concentration of […] in HBS-P+. At the start of each cycle, each antibody was captured on the Protein A surface to give an RL of ˜100 RU. Following capture, the surface was allowed to stabilize. Kinetic data was obtained using a flow rate of […] to minimize any potential mass transfer effects. For the kinetics analysis, CEACAM1 was used. Multiple repeats of the blank ([…]) and a repeat of a single concentration of the analyte were programmed into the kinetic run in order to check the stability of both the surface and analyte over the kinetic cycles. For kinetic analysis, a two-fold dilution range was selected from 200 to 3.125 nM CEACAM1. The association phase of CEACAM1 was monitored for 275 seconds and the dissociation phase was measured for 250 seconds. Regeneration of the Protein A surface was conducted using two injections of 10 mM glycine-HCL pH 1.5 at the end of each cycle.
The signal from the reference channel Fc1 was subtracted from that of Fc2, Fc3 and Fc4 to correct for differences in non-specific binding to a reference surface, and a global Rmax parameter was used in the 1-to-1 binding model. The relative KD was calculated by dividing the KD of the RSB02 Parent by that of the humanized and affinity matured variants on the same chip.
As to B1, the Kd came out at 31.6 nM, the koff was found to be 0.00139 s⁻¹, the kon stood at 44000 M⁻¹ s⁻¹ and the “relative KD to Parent” value worked out at 4.15 ratio.
On to B2, for which the affinity, expressed as Kd, was 40.9 nM; the koff is 0.0015 s⁻¹; the on-rate (kon) came out at 36700 M⁻¹ s⁻¹; the “relative KD to Parent” value was found to be 4.55 ratio.
For the molecule B3, the affinity, expressed as Kd, was 25.8 nM; the off-rate (koff) stood at 0.00795 s⁻¹; the on-rate constant (kon) worked out at 308000 M⁻¹ s⁻¹; the “relative KD to Parent” value came to 3.31 ratio.
For the molecule B4, the Kd came to 33.7 nM, the koff is 0.0013 s⁻¹, the on-rate (kon) was 38600 M⁻¹ s⁻¹ and the “relative KD to Parent” value is 3.89 ratio.
On to B5, for which the affinity, expressed as Kd, was 38.9 nM; the koff came out at 0.00146 s⁻¹; the kon turned out to be 37500 M⁻¹ s⁻¹; the “relative KD to Parent” value was determined as 3.16 ratio.
